# Experimental data as given in patent US20170173105A1, “AUTOASSEMBLING PEPTIDES FOR THE TREATMENT OF PULMONARY LEAKAGE” (3-D MATRIX, LTD., priority 2014, published 2017).
# Assays:
# [1] = Rheological properties of peptide solutions and hydrogels after salt ionic strength adjustment; type: physicochemical
# Protocol: Based on the visual observation of the effect of salt ionic strength on the properties of the peptide solutions, the effect on the rheological properties of the peptide solutions after adjusting their ionic strength level with NaCl to 0.7 M (PuraMatrix®), 0.2 M (KLD12) or 0.02 M (IEIK13), which is closely below the critical ionic strength at which each peptide becomes cloudy, was evaluated. If the ionic strength levels with NaCl of peptide solutions are higher than 0.9 M (PuraMatrix®), 0.3 M (KLD12) or 0.03 M (IEIK13), the peptide solution begin phase separation becoming cloudy and weak. The rheological property of PuraMatrix®, KLD12 and IEIK13 solutions was higher after adjusting their ionic strength level with NaCl to 0.7 M (PuraMatrix®), 0.2 M (KLD12) or 0.02 M (IEIK13), The results are shown in FIG. 10 for KLD12 1%, FIG. 11 for IEIK13 1%, and FIG. 12 for PuraMatrix® 1%, respectively. Frequency sweep tests were performed from 1 rad/s to 10 rad/s at 1 Pa.
# Based on the results of the effect on the rheological properties of the peptide solutions after adjusting their ionic strength level with NaCl to 0.7 M (PuraMatrix®), 0.2 M (KLD12) or 0.02 M (IEIK13), the effect on the rheological properties of the peptide solution at various salt ionic strengths was evaluated. […] The results are shown in FIG. 13 for PuraMatrix® 1% solution and in FIG. 14 for IEIK13 1% solution. Frequency sweep tests were performed from 1 rad/sec to 10 rad/sec at 1 Pa and the storage modulus at 1 rad/sec was selected for data.
# Based on the results of the effect on the rheological properties of the peptide solutions after adjusting their ionic strength levels, the effect on the rheological properties of the peptide hydrogels after DMEM treatment for 10 min was evaluated. […] The results are shown in FIG. 15 for PuraMatrix® 1% hydrogels and in FIG. 16 for IEIK13 1% hydrogels, both after DMEM treatment for 10 min Frequency sweep tests were performed from 1 rad/sec to 10 rad/sec at 1 Pa and the storage modulus at 1 rad/sec was selected for data.
# Based on the results of the effect on the rheological properties of the peptide solutions and hydrogels after adjusting their ionic strength levels with NaCl, the effect of various salts (KCl, MgCl2, and CaCl2) was also evaluated. The rheological property of PuraMatrix® solutions increases with ionic strength adjustment at 0.15 M of all the salts. Increases of the rheological property of PuraMatrix® solutions with various salts were not predominantly different. However, increases of the rheological property of PuraMatrix® solutions may vary depending on the salting out constant, K of each salt. Constant K is a constant in Cohen's equation: log S=B−KI, where S is solubility, B is idealized solubility, K is salting out constant, and I is ionic strength. With a higher value of constant K and ionic strength of salts, solubility of the peptide may decrease resulting in strong peptide self-assembly with increased hydrophobic effect and higher rheological properties of the peptide solution. The constant K of NaCl may be higher than the other salts. […] The results are shown in FIG. 17 for PuraMatrix® 1% solution before DMEM treatment, and in FIG. 18 for PuraMatrix® 1% hydrogels after DMEM treatment for 10 min.
# In accordance with one or more embodiments, IEIK13, KLD12, and PuraMatrix® may be dissolved both in salt buffer such as NaCl and at an elevated pH level adjusted with alkali salt buffer such as NaOH to keep their salt ionic strength under their critical salt points as well as their pH level to about 2.5˜4.0, so that they may have stiffer properties. With respect to PuraMatrix®, […] and IEIK13, the peptide solutions are still clear with 0.9% NaCl (ionic strength: 0.15 M) at pH 3.4 adjusted with NaOH. […] The effect of salt ionic strength and pH adjustment on the rheological properties of PuraMatrix® 2.5% solution are shown in FIG. 20. […]
# [2] = Appearance of 1.5% peptide solutions with various salts at room temperature; type: physicochemical; settings: for Appearance: KLD12 solution, room temperature
# Protocol: The effect of salt ionic strength level on the properties of peptide solutions was evaluated to identify optimized salt ionic strength levels for the peptides as described herein. Increasing the salt ionic strength level of PuraMatrix® and other peptides may generally improve its function and mechanical strength for various clinical applications. To adjust the salt ionic strength of the peptide solutions by way of example, various salt buffer solutions including NaCl, KCl, MgCl2, CaCl2 and DPBS (10×) were added to 2 mL of 1.5% peptide solutions.
substance,measurement,setting,value
Lys-Leu-Asp-Leu-Lys-Leu-Asp-Leu-Lys-Leu-Asp-Leu (Ac-KLDLKLDLKLDL-NH2) [KLD12],appearance of peptide solutions with salt and pH adjustment,[1]; 0.9% NaCl (ionic strength: 0.15 M) at pH 3.4 adjusted with NaOH,still clear
same,ionic strength level with NaCl at which the peptide solution begins phase separation becoming cloudy and weak,[1]; NaCl,> 0.3 M
same,rheological property of solutions after ionic strength adjustment with NaCl,"[1]; NaCl to 0.7 M (PuraMatrix®), 0.2 M (KLD12) or 0.02 M (IEIK13), 1% solutions",higher
same,Appearance,"[2]; CaCl2 0 M, ionic strength 0 M, conc. 1.5%","Clear, thick gel"
same,Appearance,"[2]; CaCl2 0.05 M, ionic strength 0.15 M, conc. 1.48%","Clear, thick, stiffer gel"
same,Appearance,"[2]; CaCl2 0.067 M, ionic strength 0.2 M, conc. 1.47%","Clear, thick, stiffer gel"
same,Appearance,"[2]; CaCl2 0.083 M, ionic strength 0.25 M, conc. 1.46%","Clear, thick, stiffer gel"
same,Appearance,"[2]; CaCl2 0.1 M, ionic strength 0.3 M, conc. 1.45%","Clear, thick, stiffer gel"
same,Appearance,"[2]; CaCl2 0.117 M, ionic strength 0.35 M, conc. 1.44%","Clear, thick, stiffer gel"
same,Appearance,"[2]; CaCl2 0.133 M, ionic strength 0.4 M, conc. 1.43%","Slightly cloudy, thick, stiffer gel"
same,Appearance,"[2]; CaCl2 0.15 M, ionic strength 0.45 M, conc. 1.43%","Slightly cloudy, brittle gel"
same,Appearance,"[2]; CaCl2 0.167 M, ionic strength 0.5 M, conc. 1.42%","Cloudy, phase-separated"
same,Appearance,"[2]; KCl 0 M, ionic strength 0 M, conc. 1.5%","Clear, thick gel"
same,Appearance,"[2]; KCl 0.05 M, ionic strength 0.5 M, conc. 1.48%","Clear, thick, stiffer gel"
same,Appearance,"[2]; KCl 0.1 M, ionic strength 0.1 M, conc. 1.45%","Clear, thick, stiffer gel"
same,Appearance,"[2]; KCl 0.15 M, ionic strength 0.15 M, conc. 1.43%","Clear, thick, stiffer gel"
same,Appearance,"[2]; KCl 0.2 M, ionic strength 0.2 M, conc. 1.4%","Clear, thick, stiffer gel"
same,Appearance,"[2]; KCl 0.25 M, ionic strength 0.25 M, conc. 1.38%","Clear, thick, stiffer gel"
same,Appearance,"[2]; KCl 0.3 M, ionic strength 0.3 M, conc. 1.35%","Slightly cloudy, thick, stiffer gel"
same,Appearance,"[2]; KCl 0.35 M, ionic strength 0.35 M, conc. 1.32%","Slightly cloudy, brittle gel"
same,Appearance,"[2]; KCl 0.4 M, ionic strength 0.4 M, conc. 1.3%","Cloudy, phase-separated"
same,Appearance,"[2]; MgCl2 0 M, ionic strength 0 M, conc. 1.5%","Clear, thick gel"
same,Appearance,"[2]; MgCl2 0.05 M, ionic strength 0.15 M, conc. 1.48%","Clear, thick, stiffer gel"
same,Appearance,"[2]; MgCl2 0.067 M, ionic strength 0.2 M, conc. 1.47%","Clear, thick, stiffer gel"
same,Appearance,"[2]; MgCl2 0.083 M, ionic strength 0.25 M, conc. 1.46%","Clear, thick, stiffer gel"
same,Appearance,"[2]; MgCl2 0.1 M, ionic strength 0.3 M, conc. 1.45%","Clear, thick, stiffer gel"
same,Appearance,"[2]; MgCl2 0.117 M, ionic strength 0.35 M, conc. 1.44%","Clear, thick, stiffer gel"
same,Appearance,"[2]; MgCl2 0.133 M, ionic strength 0.4 M, conc. 1.43%","Slightly cloudy, thick, stiffer gel"
same,Appearance,"[2]; MgCl2 0.15 M, ionic strength 0.45 M, conc. 1.43%","Slightly cloudy, brittle gel"
same,Appearance,"[2]; MgCl2 0.167 M, ionic strength 0.5 M, conc. 1.42%","Cloudy, phase-separated"
same,Appearance,"[2]; NaCl 0 M, ionic strength 0 M, conc. 1.5%","Clear, thick gel"
same,Appearance,"[2]; NaCl 0.05 M, ionic strength 0.5 M, conc. 1.48%","Clear, thick, stiffer gel"
same,Appearance,"[2]; NaCl 0.1 M, ionic strength 0.1 M, conc. 1.45%","Clear, thick, stiffer gel"
same,Appearance,"[2]; NaCl 0.15 M, ionic strength 0.15 M, conc. 1.43%","Clear, thick, stiffer gel"
same,Appearance,"[2]; NaCl 0.2 M, ionic strength 0.2 M, conc. 1.4%","Clear, thick, stiffer gel"
same,Appearance,"[2]; NaCl 0.25 M, ionic strength 0.25 M, conc. 1.38%","Clear, thick, stiffer gel"
same,Appearance,"[2]; NaCl 0.3 M, ionic strength 0.3 M, conc. 1.35%","Slightly cloudy, thick, stiffer gel"
same,Appearance,"[2]; NaCl 0.35 M, ionic strength 0.35 M, conc. 1.32%","Slightly cloudy, brittle gel"
same,Appearance,"[2]; NaCl 0.4 M, ionic strength 0.4 M, conc. 1.3%","Cloudy, phase-separated"
same,apparent stiffness on salt ionic strength increase,[2]; up to the ionic strength at which solutions stay clear,increased
